What all share (assay): cell-based or functional assay
The target of test [1] is T1, HIV-1 R5 tropic QH0692.42 envelope (on pseudovirus) (HIV-1 QH0692.42).
The target in test [2] is T1, HIV-1 R5 tropic QH0692.42 envelope (on …). This is another data set of the same source.
Test [3] concerns the target HIV-1 JR-CSF envelope (on virions) (HIV-1 JR-CSF (clade B, R5 tropic), UniProt P20871 32-848).

B1: 2F5 IgA2 (antibody, V domains shown)
VH: RITLKESGPPLVKPTQTLTLTCSFSGFSLSDFGVGVGWIRQPPGKALEWLAIIYSDDDKRYSPSLNTRLTITKDTSKNQVVLVMTRVSPVDTATYFCAHRRGPTTLFGVPIARGPVNAMDVWGQGITVTI
VL: ALQLTQSPSSLSASVGDRITITCRASQGVTSALAWYRQKPGSPPQLLIYDASSLESGVPSRFSGSGSGTEFTLTISTLRPEDFATYYCQQLHFYPHTFGGGTRVDVR
For the molecule B1, the “IC50%, neutralization of envelope pseudotyped HIV-1 in TZM-bl assay (luciferase)” value in test [1] turned out to be 0.024 nM. In test [2], the “IC50 times lower than that of 2F5 IgG1, TZM-bl assay” value was determined as 8.33 fold and the “IC90 times lower than that of 2F5 IgG1, TZM-bl assay” value worked out at 23.8 fold. Further, in test [3], the “IC50 times lower than 2F5 IgG1, CEM-CCR5+ neutralization” value was 33 fold and the “IC99 times lower than 2F5 IgG1, CEM-CCR5+ neutralization” value was 20 fold.

B2: 2F5 IgG1 (antibody, V domains shown)
VH: B1 VH
VL: B1 VL
For B2, the “IC50%, neutralization of envelope pseudotyped HIV-1 in TZM-bl assay (luciferase)” value in test [1] worked out at 0.2 nM.

Values taken from US20150004190A1 (INSTITUT NATIONAL DE LA SANTE ET DE LA RECHERCHE MEDICALE …, published 2015).
